Measured values as given in paper PMC6969161, “Rad50 zinc hook functions as a constitutive dimerization module interchangeable with SMC hinge” (Nature Communications, 2020).

T1: human Rad50 (human, UniProt Q92878 1-1312)
T1 construct: Captured by the 3xFLAG tag on anti-FLAG beads, then released by PreScission cleavage, so the tag is absent in the AFM samples; Expressed with Mre11 (and Nbs1) or alone; also called Rad50-3×FLAG; R of MRN, Mre11/Rad50 and M2R2; source: Sf9, baculovirus, purified (anti-FLAG M2 beads, eluted by PreScission cleavage, HiTrapQ, Superdex 200); not shown: 3xFLAG, C-terminal, cleaved
T1 sequence (looked up): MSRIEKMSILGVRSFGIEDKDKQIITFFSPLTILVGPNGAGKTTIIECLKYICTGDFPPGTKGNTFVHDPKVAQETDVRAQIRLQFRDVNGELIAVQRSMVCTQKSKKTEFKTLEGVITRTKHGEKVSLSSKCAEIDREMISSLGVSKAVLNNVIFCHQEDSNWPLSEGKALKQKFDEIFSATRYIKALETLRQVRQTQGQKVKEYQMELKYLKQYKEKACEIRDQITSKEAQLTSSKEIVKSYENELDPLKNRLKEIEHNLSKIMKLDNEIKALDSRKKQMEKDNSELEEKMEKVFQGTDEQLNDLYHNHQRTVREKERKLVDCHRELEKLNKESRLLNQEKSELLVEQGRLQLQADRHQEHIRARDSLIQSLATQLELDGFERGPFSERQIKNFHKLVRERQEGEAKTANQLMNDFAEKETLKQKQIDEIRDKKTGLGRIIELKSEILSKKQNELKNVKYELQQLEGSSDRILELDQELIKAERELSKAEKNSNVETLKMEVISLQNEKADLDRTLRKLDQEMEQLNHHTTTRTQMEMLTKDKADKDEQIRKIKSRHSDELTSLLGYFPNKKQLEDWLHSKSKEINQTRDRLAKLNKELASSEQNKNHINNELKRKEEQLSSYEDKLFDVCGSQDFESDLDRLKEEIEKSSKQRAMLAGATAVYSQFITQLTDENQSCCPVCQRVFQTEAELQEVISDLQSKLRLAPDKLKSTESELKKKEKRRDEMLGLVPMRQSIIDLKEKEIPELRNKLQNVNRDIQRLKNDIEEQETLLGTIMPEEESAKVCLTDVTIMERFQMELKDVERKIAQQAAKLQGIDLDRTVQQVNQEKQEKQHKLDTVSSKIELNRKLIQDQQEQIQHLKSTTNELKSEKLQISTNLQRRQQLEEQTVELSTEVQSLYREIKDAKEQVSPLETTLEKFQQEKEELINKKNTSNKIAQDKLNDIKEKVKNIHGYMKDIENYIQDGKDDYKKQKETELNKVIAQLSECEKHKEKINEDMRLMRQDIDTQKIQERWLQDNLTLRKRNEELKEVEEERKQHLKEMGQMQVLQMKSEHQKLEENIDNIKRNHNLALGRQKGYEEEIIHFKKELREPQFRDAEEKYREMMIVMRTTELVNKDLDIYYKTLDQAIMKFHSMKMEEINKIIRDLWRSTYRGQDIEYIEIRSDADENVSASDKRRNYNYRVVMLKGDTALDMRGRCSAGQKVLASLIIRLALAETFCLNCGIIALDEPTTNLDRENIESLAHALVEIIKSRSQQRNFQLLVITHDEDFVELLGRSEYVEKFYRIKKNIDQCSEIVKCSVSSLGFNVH


Assays:
[1] = target: the molecule itself; experiment: high-speed AFM; purified complexes on bare mica, imaged in 25 mM Tris-HCl pH 7.5, 75 mM KCl, 3 mM MgCl2, tapping mode; with or without 1 mM ATP or ATP-γ-S
human Rad50 = target: T1, human Rad50; experiment: co-purification (anti-FLAG affinity, ion exchange, size exclusion); proteins co-expressed in Sf9 cells; extract at 200 mM KCl on anti-FLAG M2 beads by Rad50-3×FLAG, eluted by PreScission cleavage, HiTrapQ; wild-type Mre11/Rad50 further on Superdex 200; molar ratio from the purified preparations; conditions: partners not purified

| Binder | binding result [1] | stoichiometry N (human Rad50) |
| --- | --- | --- |
| E. coli SbcC (natural protein, SbcC (E. coli Rad50), E. coli; also called E. coli Rad50; SbcC of SbcCD; source: E. coli DL776 with plasmid pDL761, purified as SbcCD (HiTrap DEAE, ammonium precipitation, Superose 6, Mono Q)) not shown | binds | – |
| human Mre11 (natural protein, UniProt P49959 1-708, looked up, Mre11, human, from human MRE11 cDNA in pFASTBAC1; also called M of MRN, Mre11/Rad50 and M2R2; source: Sf9, baculovirus, co-purified with Rad50-3×FLAG (anti-FLAG M2 beads, HiTrapQ, Superdex 200)) MSTADALDDENTFKILVATDIHLGFMEKDAVRGNDTFVTLDEILRLAQENEVDFILLGGDLFHENKPSRKTLHTCLELLRKYCMGDRPVQFEILSDQSVNFGFSKFPWVNYQDGNLNISIPVFSIHGNHDDPTGADALCALDILSCAGFVNHFGRSMSVEKIDISPVLLQKGSTKIALYGLGSIPDERLYRMFVNKKVTMLRPKEDENSWFNLFVIHQNRSKHGSTNFIPEQFLDDFIDLVIWGHEHECKIAPTKNEQQLFYISQPGSSVVTSLSPGEAVKKHVGLLRIKGRKMNMHKIPLHTVRQFFMEDIVLANHPDIFNPDNPKVTQAIQSFCLEKIEEMLENAERERLGNSHQPEKPLVRLRVDYSGGFEPFSVLRFSQKFVDRVANPKDIIHFFRHREQKEKTGEEINFGKLITKPSEGTTLRVEDLVKQYFQTAEKNVQLSLLTERGMGEAVQEFVDKEEKDAIEELVKYQLEKTQRFLKERHIDALEDKIDEEVRRFRETRQKNTNEEDDEVREAMTRARALRSQSEESASAFSADDLMSIDLAEQMANDSDDSISAATNKGRGRGRGRRGGRGQNSASRGGSQRGRADTGLETSTRSRNSKTAVSASRNMSIIDAFKSTRQQPSRNVTTKNYSEVIEVDESDVEEDIFPTTSKTDQRWSSTSSSKIMSQSQVSKGVDFESSEDDDDDPFMNTSSLRRNRR | – | ~1 Rad50 to Mre11, molar ratio |
| S. pombe Rad50 (natural protein, UniProt Q9UTJ8 1-1285, looked up, Rad50, S. pombe; The host is a wild-type strain, so endogenous Rad50 and Mre11 were also present; also called fission yeast Rad50; rad50:TEV:PA; source: S. pombe CA3, from pREP1-rad50:TEV:PA, co-purified with Mre11-3xFLAG (anti-FLAG M2 agarose, HRV3C elution, Superose 6HR)) MSCIDRMSIMGIRSFDNRSRESIQFFSPLTLIVGQNGSGKTTIIECLKYATTGILPPNTKGGAFIHDPKICGEKEVLAQVKLAFRNTNQVKMICTRSLQLSVKKTTRQQKTLDGQLLILKDNERTTISNRCAELDSQVPLSLGVSKALLDYVIFCHQEESFWPLSEPANLKKRFDEIFESLRYAKALDQIKGLKRDQETQVKVDQATLTHYRSDKERAEKIELRVHESLKRISCIRSKVEELDQEITETARLQDELFKSTEEYEQQMITIRHLESQSDIINTTINDLKSQMTITDESSEDLEKLHSNFAEKVKEEQELYKSLEKKRSDLESLLKSRRELLEKLTGDLGKIQGEIESLEKLKVKKSTMINEIVHRYNINEINEEGIMTEVSKYASLVNKNYEISSGKLKERQVAVRARIEGIKAHEMFLNNRVSEINSSLEKQLTTQKELRSRFEILFPVKLQREDFTKDVEKSDLWIKSLRQEYESKNLLELLDKHQTALSSVENRLDEISEIVDSYHKYSGVRTKLQVFEENKTNKSAILANQLMTLKSSFSEVMSYELKDDDNYNEELDKLVEDVRKKLQEKEEAESSLRSVRERLEIRISLSVQSINDLTENKKIKTKTLKSYSGTFASMISEIKALESEIEENRKTLHSLQFGSTFYEKAIEICVDQHACQLCQRSLDKEEEKLFVEHCHSMIDVIPSKSAEVYSHLETLTKTFKNLSEAKPIFDEIELLDKRLSETKTELSDLQGDLQGLDIRKDEIQSELDTLYLRRANLEKLQLLVKDISNLEEEIRTIDRETEVLRIELPSSIAHHNLDEIYAEREKLLEKRGYLRKQIERTKLEETSFKKKIDDAVLANNEQKLKLTKLNFQVNELEQLEKDINKSSEDCDLQKKKLLEVSSKQGSQAPFLNELESEYEKLEADIQEMAQKSRTEILEANEYLHQLNEWNSELRIDVSTKFKCIKEKKSNIGEEVRIIASKIESTDDNLRKLQERLADLRTRERNASDNLRLRALMRQLEEAVTQKNYLLSQQSHDDRESFRERMQILKSKYGALNAERAGLLGECKQLENSITKDKEELNMEFKDADERFRRQLIKTKTTGKANEDLGKYAKALDVAIMQLHSMKMNEINRIVDELWKQTYCGTDIDTILIRSDSEGKGNRTYNYRVCMVKGDAELDMRGRCSAGQKVLACIIIRLALAECLGVNCGILALDEPTTNLDEENICSLAKNLSRIVEFRRKQANFQLIVITHDEQFIRLVNSDAYCSYYYRVKRDTNQKSMIVKEPL | binds | – |
